The target in assay [1] is ΔTPDM3^Col-0 D332R (recombinant) (Arabidopsis thaliana). Nature of the assay: SEC. On the technique in general: In gel filtration, larger molecules generally elute earlier.
The target of assay [2] is ΔTPDM3^Hh-0 (recombinant, 52-515) (Arabidopsis thaliana). The assay can be described thus: cryo-EM structure.
Assay [3] addresses DM2h^Bla-1-Myc (Arabidopsis thaliana). The assay can be described thus: native gel or EMSA. In general terms: In EMSA bound probe runs differently from free probe, usually more slowly.
Assay [4] deals with ΔTPDM3^Col-0 S214A (recombinant) (Arabidopsis thaliana). Nature of the assay: SEC.
The target of assay [5] is ΔTPDM3^Col-0 Q345R (recombinant) (Arabidopsis thaliana). Nature of the assay: SEC.
Assay [6] deals with ΔTPDM3^Col-0 DQN-AAA (D332A Q345A N349A triple mutant, recombinant) (Arabidopsis thaliana). Nature of the assay: SEC.
The target of assay [7] is ΔTPDM3^Hh-0 S214A (recombinant) (Arabidopsis thaliana). Nature of the assay: SEC.
Assay [8] concerns the target ΔTPDM3^Col-0 (recombinant, 52-515) (Arabidopsis thaliana). The assay can be described thus: cryo-EM structure.
The target of assay [9] is ΔTPDM3^Col-0 DQ-RR (D332R Q345R double mutant, recombinant) (Arabidopsis thaliana). Nature of the assay: SEC.

Several values for one entry are separate records, joined by “and”; a condition that tells them apart may be missing. Equal entries are not always repeated.

The term stoichiometry N denotes a count of units in the complex or per binding partner. Consider “ΔTPDM3^Col-0 D332R (recombinant) (enzyme)”, for which the stoichiometry N in assay [1] amounted to 6. With “ΔTPDM3^Hh-0 (recombinant, 52-515) (enzyme)”, the stoichiometry N in assay [2] was 6.

As for DM2h^Bla-1-Myc (receptor), the stoichiometry N in assay [3] is 2 and 4. Take “ΔTPDM3^Col-0 S214A (recombinant) (enzyme)”: in assay [4], the stoichiometry N was determined as 6. On to “ΔTPDM3^Col-0 Q345R (recombinant) (enzyme)”, for which the stoichiometry N in assay [5] amounted to 6. On to “ΔTPDM3^Col-0 DQN-AAA (D332A Q345A N349A triple mutant, recombinant) (enzyme)”, for which, in [6], the stoichiometry N is 6. Take “ΔTPDM3^Hh-0 S214A (recombinant) (enzyme)”: the stoichiometry N in assay [7] was determined as 6. Take “ΔTPDM3^Col-0 (recombinant, 52-515) (enzyme)”: in assay [8], the stoichiometry N was 6.

For “ΔTPDM3^Col-0 DQ-RR (D332R Q345R double mutant, recombinant) (enzyme)”, in assay [9], the stoichiometry N stood at 6.

(Values after article doi:10.1101/2024.10.28.620575.)
